Ends that are not written are not given here. * marks the point of attachment. IAANS = 2-(4'-(iodoacetamido)anilino)naphthalene-6-sulfonic acid label, O=C(C*)Nc1ccc(Nc2ccc3cc(S(=O)(=O)O)ccc3c2)cc1; HiLyte Fluor 488 maleimide = HiLyte Fluor 488-maleimide (Anaspec) label
Assays:
Conditions in all cases: both partners purified
DnaK-L484A [1] = molecular target: T1, DnaK-L484A (Escherichia coli, UniProt P0A6Y8 1-638, L484A); test: MST; 100 nM HiLyte Fluor 488-labelled peptide with 0.6 nM-10 μM DnaK, HKM buffer (25 mM HEPES/KOH pH 7.6, 50 mM KCl, 5 mM MgCl2) with 0.1% Tween-20, incubated at least 30 min, 30 °C, Monolith NT.115
T1 construct: DnaK, the Hsp70 of Escherichia coli, Leu484 replaced by alanine; source: E. coli ΔdnaK52 cells (BB1553), purified (Ni-IDA, Resource Q), nucleotides removed

wild-type DnaK [2] = molecular target: T2, wild-type DnaK (Escherichia coli, UniProt P0A6Y8 1-638); test: as above
T2 construct: DnaK, the Hsp70 of Escherichia coli; also called DnaKwt; Wt; source: E. coli ΔdnaK52 cells (BB1553), purified (Ni-IDA, Resource Q), nucleotides removed

DnaK-V440A [3] = molecular target: T3, DnaK-V440A (Escherichia coli, UniProt P0A6Y8 1-638, V440A); test: as above
T3 construct: DnaK, the Hsp70 of Escherichia coli, Val440 replaced by alanine; source: E. coli ΔdnaK52 cells (BB1553), purified (Ni-IDA, Resource Q), nucleotides removed

DnaK-D148A [4] = molecular target: T4, DnaK-D148A (Escherichia coli, UniProt P0A6Y8 1-638, D148A); test: as above
T4 construct: DnaK, the Hsp70 of Escherichia coli, Asp148 replaced by alanine; source: E. coli ΔdnaK52 cells (BB1553), purified (Ni-IDA, Resource Q), nucleotides removed

DnaK-F146A = molecular target: T5, DnaK-F146A (Escherichia coli, UniProt P0A6Y8 1-638, F146A); test: fluorescence dissociation kinetics (chase with unlabelled peptide); no nucleotide; 0.5 μM DnaK and 0.5 μM IAANS-labelled peptide pre-incubated at least 30 min, then mixed with 50-fold excess of unlabelled peptide; HKM buffer, 30 °C; Perkin Elmer LS55
T5 construct: DnaK, the Hsp70 of Escherichia coli, Phe146 replaced by alanine; source: E. coli ΔdnaK52 cells (BB1553), purified (Ni-IDA, Resource Q), nucleotides removed

wild-type DnaK [5] = molecular target: T2, wild-type DnaK; test: as above
DnaK-Y145H = molecular target: T6, DnaK-Y145H (Escherichia coli, UniProt P0A6Y8 1-638, Y145H); test: as above
T6 construct: DnaK, the Hsp70 of Escherichia coli, Tyr145 replaced by histidine; source: E. coli ΔdnaK52 cells (BB1553), purified (Ni-IDA, Resource Q), nucleotides removed

DnaK-Y145F = molecular target: T7, DnaK-Y145F (Escherichia coli, UniProt P0A6Y8 1-638, Y145F); test: as above
T7 construct: DnaK, the Hsp70 of Escherichia coli, Tyr145 replaced by phenylalanine; source: E. coli ΔdnaK52 cells (BB1553), purified (Ni-IDA, Resource Q), nucleotides removed

DnaK-Y145A = molecular target: T8, DnaK-Y145A (Escherichia coli, UniProt P0A6Y8 1-638, Y145A); test: as above
T8 construct: DnaK, the Hsp70 of Escherichia coli, Tyr145 replaced by alanine; source: E. coli ΔdnaK52 cells (BB1553), purified (Ni-IDA, Resource Q), nucleotides removed

DnaK-D148A [6] = molecular target: T4, DnaK-D148A; test: as above
DnaK-L484A [7] = molecular target: T1, DnaK-L484A; test: fluorescence dissociation kinetics (chase with unlabelled peptide); in the presence of ATP; 0.5 μM DnaK and 0.5 μM IAANS-labelled peptide pre-incubated at least 30 min, then mixed with 50-fold excess of unlabelled peptide; HKM buffer, 30 °C; stopped flow
DnaK-V440A [8] = molecular target: T3, DnaK-V440A; test: as above
DnaK-D481A = molecular target: T9, DnaK-D481A (Escherichia coli, UniProt P0A6Y8 1-638, D481A); test: as above
T9 construct: DnaK, the Hsp70 of Escherichia coli, Asp481 replaced by alanine; source: E. coli ΔdnaK52 cells (BB1553), purified (Ni-IDA, Resource Q), nucleotides removed

DnaK-D481K = molecular target: T10, DnaK-D481K (Escherichia coli, UniProt P0A6Y8 1-638, D481K); test: as above
T10 construct: DnaK, the Hsp70 of Escherichia coli, Asp481 replaced by lysine; source: E. coli ΔdnaK52 cells (BB1553), purified (Ni-IDA, Resource Q), nucleotides removed

Measured: binding result

B1: HiLyte Fluor 488-labelled σ32-Q132-Q144-C (peptide)
peptide: QRKLFFNLRKTKQC(HiLyte Fluor 488 maleimide)
notes: residues Q132-Q144 of σ32, the E. coli heat shock transcription factor; cysteine added at the C-terminus of the peptide (the '-C' of its name); also called fluorescently labelled peptide derived from σ32
binds: DnaK-L484A [1] | wild-type DnaK [2] | DnaK-V440A [3] | DnaK-D148A [4]

B2: IAANS-labelled peptide σ32-Q132-Q144-C (peptide)
peptide: QRKLFFNLRKTKQC(IAANS)
notes: residues Q132-Q144 of σ32, the E. coli heat shock transcription factor; cysteine added at the C-terminus of the peptide (the '-C' of its name); also called 2-(4'-(iodoacetamido)anilino)naphthalene-6-sulfonic acid labelled σ32-Q132-Q144-C; substrate
not listed: DnaK-L484A [1] | wild-type DnaK [2] | DnaK-V440A [3] | DnaK-D148A [4]
binds: all other assays above

Reference: publication PMC4595643, “Pathways of allosteric regulation in Hsp70 chaperones” (Nature Communications, 2015)
